Measured values from the RNAGym collection of RNA variant scans (doi:10.7554/elife.80360).

B1: Twister Ribozyme (parent)
chain: AACACUGCCAAUGCCGGUCCCAAGCCCGGAUAAAAGUGGAGGGGGCGG

Variants of: B1
Experiment: self-cleavage, relative activity (ratio to wild type); higher = more cleavage; co-transcriptional

Row | Variant | self-cleavage
1 | A10U G47U | 1.01
2 | A10U G47A | 0.946
3 | A10U G47C | 0.596
4 | A11G A33U | 0.955
5 | A11C C19U | 0.627
6 | A11C G42A | 0.248
7 | A11C G42U | 0.136
8 | A10G G48U | 1.15
9 | A10G G48A | 0.902
10 | A11C A33U | 0.853
11 | A11C A34G | 0.713
12 | A10G U18G | 0.0537
13 | A10G U18A | 0.841
14 | A10U G38U | 0.863
15 | A11C G48C | 1.05
16 | A11C G48A | 0.998
17 | A11C G48U | 1.06
18 | A10U A40U | 0.111
19 | A10U A40C | 0.305
20 | A10U C27U | 0.93
21 | A10U C27G | 0.057
22 | A11C A30G | 0.739
23 | A11C A30C | 0.719
24 | A10G G45C | 0.639

Row | Variant | self-cleavage
25 | A11C C20G | 0.131
26 | A11C C20U | 0.91
27 | A11G A32U | 0.841
28 | A10U U18C | 0.506
29 | A10U U18A | 0.546
30 | A10U U18G | 0.115
31 | A10G U37A | 0.805
32 | A10G U37C | 0.946
33 | A10G U37G | 0.89
34 | A11C A23C | 0.0766
35 | A10U U12A | 0.986
36 | A11G C26A | 0.187
37 | A11C C26U | 0.137
38 | A10G G16U | 1.14
39 | A10G G16C | 0.567
40 | A11C C46G | 0.917
41 | A11C C46A | 0.908
42 | A11C C46U | 0.736
43 | A11C G13A | 0.188
44 | A11C G13C | 0.164
45 | A11C G13U | 0.0589
46 | A10U G44U | 0.971
47 | A10U G44C | 0.937
48 | A10U A32C | 0.983

Row | Variant | self-cleavage
49 | A10U A32U | 0.842
50 | A10U A32G | 0.896
51 | A10U G16U | 0.802
52 | A10U G16C | 0.419
53 | A10G G28C | 1.05
54 | A11C C25A | 0.0918
55 | A11C C25U | 0.733
56 | A11C C25G | 0.115
57 | A11C G45U | 0.748
58 | A10U A22C | 0.93
59 | A10G G13A | 1.09
60 | A10G G13C | 0.835
61 | A10G G13U | 0.79
62 | A10U G45A | 0.999
63 | A10U G45U | 0.871
64 | A10U U31G | 0.948
65 | A10U G24U | 0.119
66 | A11C G16A | 0.234
67 | A11C G16U | 0.0992
68 | A10U A34U | 0.818
69 | A11G A35C | 0.903
70 | A10U G39C | 0.0863
71 | A11C G43A | 0.167
72 | A10U C19U | 0.92

Row | Variant | self-cleavage
73 | A11C G24C | 0.0648
74 | A11C G24A | 0.0913
75 | A11C G24U | 0.0789
76 | A11C A22G | 0.168
77 | A11C A22C | 0.929
78 | A10U C15A | 0.619
79 | A10U C15U | 0.911
80 | A10U C15G | 0.062
81 | A11G C25A | 0.13
82 | A11G C25U | 0.737
83 | A11C G39C | 0.208
84 | A11C G39A | 0.601
85 | A11C G39U | 0.214
86 | A10U A23G | 0.461
87 | A10U A23C | 0.182
88 | A10U G42U | 0.447
89 | A11G G17C | 0.0792
90 | A11G G17U | 0.188
91 | A11G G17A | 0.372
92 | A11C U31A | 0.502
93 | A11C U31G | 0.917
94 | A11G G13A | 0.745
95 | A11G G13C | 0.345
96 | A11C G28C | 0.431

Row | Variant | self-cleavage
97 | A11C G41C | 0.255
98 | A11C G41U | 0.42
99 | A10U G13A | 0.913
100 | A10U G13C | 0.211
101 | A11C A32G | 0.788
102 | A11G C15A | 0.567
103 | A11G A22G | 0.23
104 | A10U G17C | 0.11
105 | A10U G17A | 0.532
106 | A11G A34G | 0.819
107 | A11C A40G | 0.12
108 | A11C A40C | 0.14
109 | A11C A40U | 0.153
110 | A11G A40C | 0.214
111 | A11G A40U | 0.126
112 | A10G G38A | 0.89
113 | A10G G43C | 0.262
114 | A10G G43A | 0.363
115 | A10G G44A | 0.881
116 | A10G G44U | 1.04
117 | A10G G44C | 0.965
118 | A11G C19G | 0.538
119 | A11G C19U | 0.792
120 | A10G G24U | 0.18

Row | Variant | self-cleavage
121 | A10G G24C | 0.131
122 | A10U G36U | 0.716
123 | A10U G36A | 0.804
124 | A10G G42U | 0.493
125 | A10G G42C | 0.618
126 | A10U G28U | 0.929
127 | A11C G36A | 0.87
128 | A11C G36U | 0.8
129 | A11C G44U | 0.791
130 | A11C U37C | 0.808
131 | A11C U37A | 0.886
132 | A11C U37G | 0.742
133 | A10U C14U | 0.884
134 | A10G G47C | 0.809
135 | A10G G47A | 0.821
136 | A11C G17C | 0.0996
137 | A11C G29U | 0.681
138 | A11C G29A | 0.531
139 | A10U G48A | 0.959
140 | A11G C27U | 0.405
141 | A11G C27A | 0.449
142 | A11G A23U | 0.614
143 | A11G A30G | 0.674
144 | A11G A30U | 0.976

Row | Variant | self-cleavage
145 | A10U A35U | 0.89
146 | A10U G29U | 0.939
147 | A11G C46A | 0.808
148 | A11G C46G | 0.938
149 | A11C C14A | 0.69
150 | A11C C14U | 0.909
151 | A11G G24C | 0.0551
152 | A11G G24A | 0.0843
153 | A11G | 0.932
154 | A11C | 0.906
155 | A11G G16U | 0.875
156 | A11G G16C | 0.406
157 | A10G G29C | 1.01
158 | A10G G29U | 1.12
159 | A10G G39A | 0.564
160 | A10G G17C | 0.217
161 | A10G G17A | 1.02
162 | A10G U12C | 0.847
163 | A10U C25G | 0.194
164 | A10G C46G | 0.971
165 | A10U U37G | 0.602
166 | A11C C15A | 0.24
167 | A10U C46U | 0.836
